Assay results reported in publication PMC11412978.

Molecular target: USP22 (ubiquitin-specific protease 22) (UniProt Q9UPT9)
Assay: co-IP of myc-MYH9 and Flag-USP22
Details: reference: wild-type MYH9; sites S1943

In the case of “MYH9 (non-muscle myosin heavy chain 9) (from UniProt P35579) MYH9-S1943A”, the “binding against the reference” value is reported as “lost”.
